Where two headings read alike, the source gives them in different places.
Assays:
[1] = tested on: LS174T-PSMA cells; experiment: in vitro binding and internalization assay; assay type: cell-based, human; settings: 37 °C, 2 h
Procedure: The binding and internalization characteristics of the ligands were determined using LS174T-PSMA cells. Cells were cultured to confluency in 6-well plates followed by incubation with 50,000 counts per minute of ^111In-labeled ligand (0.1–0.25 pmol/well) in 1-ml RPMI + 0.5% BSA (37 °C, 2 h). Non-specific binding was determined by coincubation with 2(phosphonomethyl)-pentane-1,5-dioic acid (2-PMPA, 21.57 µM). PSMA-specific binding was defined as total binding minus the non-specific binding. To retrieve the membrane-bound fraction, cells were washed twice with PBS and incubated for 10 min at 0 °C with acid buffer (154-mM NaCl, 0.1 M acetic acid, pH 2.6). After incubation, the membrane-bound fraction was collected. Then, cells were washed and lysed with 0.1 M NaOH, and the cell lysate (intracellular activity) was collected. Intracellular and membrane-bound activity fractions were measured in a gamma-counter (2480 WIZARD^2 Automatic Gamma Counter, PerkinElmer).

[2] = tested on: LS174T-PSMA cells; experiment: in vitro targeted PDT assay (CellTiter-Glo); assay type: cell-based, human; settings: 30 nM ligand, irradiated with 100 J/cm^2
Procedure: LS174T wildtype (LS174T-WT) and LS174T-PSMA cells were cultured to confluency in 48-well plates. Cells were incubated (2 h, 5% CO2, 37 °C) with 30-nM PSMA ligand in binding buffer (RPMI 1640 + 0.5% BSA) in triplicate. After washing with PBS, a 0.5-ml binding buffer was added to each well, and cells were irradiated with a NIR light-emitting diode (690 ± 20 nm). The typical forward voltage was 2.6 V creating a power output of 490 mW using 126 individual LED bulbs to ensure homogenous illumination of the area of interest predefined as 5 × 3 cm. The cells were irradiated at NIR radiant exposures of 100 J/cm^2 ([…]) and subsequently incubated for 1 h at 37 °C. Cells that only received the PSMA ligand, only the NIR light, or neither the ligand nor the light were included as controls. Cytotoxic effects of PDT with PSMA ligands were determined with a CellTiter-Glo™ assay (Promega Benelux) according to the manufacturer’s instructions. The binding buffer was replaced with 100-µl fresh binding buffer and 100-µl CellTiter-Glo® 2.0 Assay. Plates were shaken (2 min) and incubated for 10 min at room temperature. Next, luminescence was measured in a plate reader (Tecan Infinite® 200 PRO) to determine the metabolic activity of the cells.

[3] = ex vivo biodistribution of 111In-labeled ligands; design: species or system BALB/c nude mice; settings: male, BALB/c nude, mouse, iv, 0.3 nmol, total radioactivity, 2 h p.i.; for tissue uptake at 2 h: 10 MBq/mouse, i.v.
Procedure: (§1) All animal experiments were approved by the institutional Animal Welfare Committee of the Radboud University Medical Center and were conducted in accordance to the guidelines of the Revised Dutch Act on Animal Experimentation. Animal experiments were performed in 8–10 weeks old male BALB/c nude mice (Janvier). The mice were housed in individually ventilated cages (Blue line IVC, 3–5 mice per cage), under standard non-sterile conditions with cage enrichment present. There was free access to chlorophyll-free animal chow (Sniff Voer) and water. Mice were subcutaneously inoculated with 3.0 × 10^6 LS174T-PSMA cells in the right flank and 1.5 × 10^6 LS174T WT cells in the left flank (diluted in 200-µl RPMI 1640 medium). When xenografts were approximately 0.5 cm^3 (10–14 days after injection), mice were block-randomized into groups based on tumor size. The researchers were not blinded for the experimental groups.
(§2) Mice were intravenously injected with 0.3 nmol PSMA ligand, labeled with 10 MBq ^111In (molar activity 33.3 MBq/nmol) in PBS + 0.5% (w/v) BSA. For the ex vivo biodistribution, five groups (one group for each ligand) of four mice were included. Two hours p.i., all mice were euthanized by CO2/O2-asphyxiation. For two mice of each group (2 mice/ligand), background-subtracted fluorescence images were acquired with the IVIS imaging system (Xenogen VivoVision IVIS Lumina II, PerkinElmer), with a 640-nm excitation filter and a Cy5.5 emission filter and an acquisition time of 10 s. Next, µSPECT/CT imaging was performed in the same two mice per group, with a 1.0-mm diameter pinhole mouse collimator tube (U-SPECT II, MILabs). Mice were scanned for 30 min followed by a CT scan for anatomical reference (spatial resolution 160 μm, 615 μA, 65 kV). MILabs reconstruction software was used to reconstruct the µSPECT/CT scans, via an ordered-subset expectation maximization algorithm, energy windows 154–188 keV and 220–270 keV, 3 iterations, 16 subsets, and voxel size of 0.75 mm. SPECT/CT maximum intensity projections (MIPs) were created using the Inveon Research Workplace software (Siemens Preclinical Solutions, version 4.1). NIR fluorescence images were analyzed using Living Image software (PerkinElmer, version 4.2). After imaging, relevant tissues were dissected, weighed, and measured for radioactivity in a gamma-counter (2480 WIZARD^2 Automatic Gamma Counter, PerkinElmer). In addition, a blocking experiment with PSMA-N064 and PSMA-617 was performed. Full experimental procedures and results can be found in the supplementary data (Page 5, Supplementary Fig. 3).

[4] = tested on: LS174T-PSMA and LS174T wildtype xenografts; experiment: ex vivo biodistribution of 111In-labeled ligands; design: species or system BALB/c nude mice; settings: 0.3 nmol, 2 h p.i.; for Biodistribution Kidney / Biodistribution Tumor+ LS174T-PSMA: 10 MBq/mouse, i.v., n=4
Procedure: as §1, §2

[5] = LS174T wildtype tumor, n=4, read-out: Biodistribution Tumor- LS174T
[6] = LS174T-PSMA tumor, n=4, read-out: Biodistribution Tumor+ LS174T-PSMA
[7] = adrenals, n=4, read-out: Biodistribution Adrenals
[8] = blood, n=4, read-out: Biodistribution Blood
[9] = bone marrow, n=4, read-out: Biodistribution Bone marrow
[10] = bone, n=4, read-out: Biodistribution Bone
[11] = duodenum, n=4, read-out: Biodistribution Duodenum
[12] = heart, n=4, read-out: Biodistribution Heart
[13] = kidney, n=4, read-out: Biodistribution Kidney
[14] = liver, n=4, read-out: Biodistribution Liver
[15] = lung, n=4, read-out: Biodistribution Lung
[16] = muscle, n=4, read-out: Biodistribution Muscle
[17] = pancreas, n=4, read-out: Biodistribution Pancreas
[18] = prostate, n=4, read-out: Biodistribution Prostate
[19] = salivary glands, n=4, read-out: Biodistribution Salivary glands
[20] = spleen, n=4, read-out: Biodistribution Spleen
[21] = stomach, n=4, read-out: Biodistribution Stomach
[22] = tumor (LS174T-PSMA xenograft) / blood, read-out: Tumor/Blood ratio
[23] = tumor (LS174T-PSMA xenograft) / kidney, read-out: Tumor/Kidney ratio
[24] = tumor (LS174T-PSMA xenograft) / liver, read-out: Tumor/Liver ratio
[25] = tumor (LS174T-PSMA xenograft) / spleen, read-out: Tumor/Spleen ratio

Row | Compound | internalization percentage (percentage of cell-associated ligand that was internalized) [1] | cell viability [2] | tissue uptake at 2 h [3, 5] [%ID/g] | tissue uptake at 2 h [3, 6] [%ID/g] | tissue uptake at 2 h [3, 7] [%ID/g] | tissue uptake at 2 h [3, 8] [%ID/g] | tissue uptake at 2 h [3, 9] [%ID/g] | tissue uptake at 2 h [3, 10] [%ID/g] | tissue uptake at 2 h [3, 11] [%ID/g] | tissue uptake at 2 h [3, 12] [%ID/g] | tissue uptake at 2 h [3, 13] [%ID/g] | tissue uptake at 2 h [3, 14] [%ID/g] | tissue uptake at 2 h [3, 15] [%ID/g] | tissue uptake at 2 h [3, 16] [%ID/g] | tissue uptake at 2 h [3, 17] [%ID/g] | tissue uptake at 2 h [3, 18] [%ID/g] | tissue uptake at 2 h [3, 19] [%ID/g] | tissue uptake at 2 h [3, 20] [%ID/g] | tissue uptake at 2 h [3, 21] [%ID/g] | tissue to tissue ratio at 2 h [3, 22] | further results
1 | C[Si](C)(CCC[N+](CCCS(=O)(=O)[O-])(CCCS(=O)(=O)O)CCCS(=O)(=O)O)O[Si]1(O[Si](C)(C)CCC[N+](CCCS(=O)(=O)[O-])(CCCS(=O)(=O)O)CCCS(=O)(=O)O)n2c3c4ccccc4c2N=C2N=C(N=c4c5c(OCCCOC(=O)NCCCCCC(=O)NCCCC[C@H](NC(=O)CN6CCN(CC(=O)O)CCN(CC(=O)O)CCN(CC(=O)O)CC6)C(=O)NCCCC[C@H](NC(=O)[C@H](CCC(=O)O)NC(=O)c6ccccc6)C(=O)NC[C@H]6CC[C@H](C(=O)N[C@@H](Cc7ccc8ccccc8c7)C(=O)NCCCC[C@H](NC(=O)N[C@@H](CCC(=O)O)C(=O)O)C(=O)O)CC6)cccc5c(n41)=NC1=NC(=N3)c3ccccc31)c1ccccc12 [PSMA-N03] | 73–90% | 25% ± 4% | 1.1 ± 0.2 | 20 ± 2 | 2.1 ± 0.8 | 0.7 ± 0.1 | 0.2 ± 0.1 | 0.5 ± 0.1 | 0.4 ± 0.03 | 0.4 ± 0.04 | 142 ± 11 | 1.3 ± 0.1 | 1.8 ± 0.4 | 0.2 ± 0.1 | 0.3 ± 0.02 | 0.6 ± 0.2 | 0.6 ± 0.1 | 1.5 ± 0.4 | 0.6 ± 0.1 | 27 ± 2.9 | tissue to tissue ratio at 2 h [3, 23]: 0.2 ± 0.02; tissue to tissue ratio at 2 h [3, 24]: 15.1 ± 1.7; tissue to tissue ratio at 2 h [3, 25]: 14.3 ± 4; Biodistribution Kidney [4]: 142.4 ± 10.6 %ID/g; Biodistribution Tumor+ LS174T-PSMA [4]: 19.8 ± 1.9 %ID/g; Biodistribution Tumor+ LS174T-PSMA ([4]; listed as N03): ≥ 20 %ID/g; Tumor/Negative tumor ratio [4]: 19.9 ± 6.3; Tumor/Prostate ratio [4]: 35.1 ± 10.7; Tumor/Salivary gland ratio [4]: 35.0 ± 5.0
2 | C[Si](C)(CCC[N+](CCCS(=O)(=O)[O-])(CCCS(=O)(=O)O)CCCS(=O)(=O)O)O[Si]1(O[Si](C)(C)CCC[N+](CCCS(=O)(=O)[O-])(CCCS(=O)(=O)O)CCCS(=O)(=O)O)n2c3c4ccccc4c2N=C2N=C(N=c4c5c(OCCCOC(=O)NCCCCCC(=O)NCCCC[C@H](NC(=O)CN6CCN(CC(=O)O)CCN(CC(=O)O)CCN(CC(=O)O)CC6)C(=O)NCCCC[C@H](NC(=O)[C@H](CCC(=O)O)NC(=O)c6ccccc6)C(=O)NCc6ccc(C(=O)N[C@@H](Cc7ccc8ccccc8c7)C(=O)NCCCC[C@H](NC(=O)N[C@@H](CCC(=O)O)C(=O)O)C(=O)O)cc6)cccc5c(n41)=NC1=NC(=N3)c3ccccc31)c1ccccc12 [PSMA-N01] | 73–90% | 23% ± 5% | 1.1 ± 0.2 | 21 ± 3 | 1.8 ± 0.1 | 1.1 ± 0.1 | 0.3 ± 0.2 | 0.7 ± 0.1 | 0.7 ± 0.1 | 0.6 ± 0.1 | 90 ± 7 | 1.5 ± 0.2 | 2.7 ± 0.9 | 0.2 ± 0.03 | 0.4 ± 0.1 | 0.6 ± 0.1 | 0.8 ± 0.1 | 2.2 ± 0.4 | 0.7 ± 0.1 | 20 ± 2.5 | tissue to tissue ratio at 2 h [3, 23]: 0.2 ± 0.04; tissue to tissue ratio at 2 h [3, 24]: 14.6 ± 2.4; tissue to tissue ratio at 2 h [3, 25]: 9.9 ± 1.4; Biodistribution Kidney [4]: 99.2 ± 11.5 %ID/g; Tumor/Negative tumor ratio [4]: 19.7 ± 6.5; Tumor/Prostate ratio [4]: 35.6 ± 4.6; Tumor/Salivary gland ratio [4]: 27.8 ± 4.8
